Measurements reported in the nanobody polyreactivity screen of Harvey et al. (2022).

Assay: yeast display, Sf9 membrane polyspecificity reagent, FACS + sequencing; frameworks hold sequencing errors
Method in brief: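 Genes from sorted yeast were amplified by colony PCR, read by MiSeq 2 × 250 sequencing and filtered on CDR length. These cells carried a synthetic nanobody library in Saccharomyces cerevisiae BJ5465 and were sorted by FACS into low and high (top ~1%) gates on anti-HA and streptavidin fluorescence. Polyreactivity is labelled according to the gate of origin.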

| Sequence | polyreactivity (PSR sort gate) |
| --- | --- |
| QVHLVESGGGLVQAGGSLRLSCAASGRTFRYNAMGWYRQAPGKERELVATISSSGGSTSYADSVKGRFTISRDNAKNTVYLQMNSLKPEDTAVYYCNKRRLVAPGNGMDSWGQGTQVTVSS | low polyreactivity |
| QVQHVESGGCLVQAGGSLRLSCAASGSIFYRYAMGWYRQGPGKESQLVAAIRRGGSTNYADSVKGRFTISRDNAKYTVSLQMNSLKPEDTAVYYCAAGRFTYAAQSYEYWGQGTQVTVSS | high polyreactivity |
| QVQLVESGGGLVQAGGSLRISCAASGFAFSYYAMGWYRQAPGKEREFVASIDWSGGSTYYADSVKGRFTISRDNAKNTVYLQMNSLKPEDTAVYYCAAELDYFPGYDYWGQGTQVTVSS | low polyreactivity |
| QVQLVESGGGLVQAGGSLRISCAASGRIFARNAMGSYRQAPGKERELVATIRVGGGSTYYADSVTGRFTISRDNAKNTVYLQMNSLKPEDTSVYYCAVRQLYSYPGDRRGYYWGQGTQVTVSS | low polyreactivity |
| QVQLVETGGGLVQAGGSLRLICAASGSTFQPYAMGWYRQAPGKEREFVATISGSAGSTYYADSVKGRFKISRDNAKNTVYLQMNSLKPEDTAVYYCNADSGWFGYDYWGQGTQVTVSS | low polyreactivity |
| QVQLVESGGGLVQAGGSLRLSCAASGRIFVPYAMGWYRQAPGKERELVAGITSGSRTNYADSVKGRFTISRDNAKYTVYLQMNSLKPEDTEVYYCNALDFRYYGIFDYWGQGTQVTVSS | high polyreactivity |
| QVQLVESGGGLVQAGGSLRLSCAASGGIFGVYAMVWYRQAPGKERELVAAISQSDTSTYYADSVKGRFTISRDNAKNTVYLQMNSLKPEDTAVYYCADEYYLDYYTWFDYWGQGTQVTVSS | high polyreactivity |
| QVQLVESGGGLVQAGGSLRLSCAASRNTFVPYVMGWYRQAPGKERELVAAISRRGGSTRYADSVKGRFTISRDNAKNTVYLQMNSLKPEDTAVYYCAAKRKSYYSYNFDYWGHGTQVTVSS | high polyreactivity |
| QVQLQERGGGLVQAGGSLRLSCAASGIIYADGFMGLYRQAPGKELEFVANITGGGTSNYADSVKGGFTISRDNAKNTVYLQMNSLKPEDTAVYFCAVYFAWTIGFTYWGQGTQVTVSS | high polyreactivity |
| QVQLVESGGGLVQAGGSLRLSCAASGSNFTYYALGWYRQAPGKERELVAAISKTGGRTYYADSVKGRFTISRDNAKNTVYLQMNSLKPEDTAVYYWAAEAPWQWYGWLRGYDFCGQGTQVTVSS | high polyreactivity |
| QVQLVESGGGLVQAGGSLRLSCAASGSTFAYNAMGWYRQAPGKERELVAAISWRGGSTYYADSVKGRFTISRDNAKNTVYLQMNSLKPEDTAVYYCAALYPYKREDYWGQGTQVTVSS | high polyreactivity |
| QVQLVESGGGLVQAGGSLRLSCAASGSTFDPNTKGWYRQAPGKERELVATITSVDSTNYADSVKGRFTISRDNANNTVYLQMNSLKTEDTAVYYCNADFVRVFFYAYDYWGQGTQVTVSS | low polyreactivity |
| QVQLVESGGGLVQAGGSLRLSCAASGGIFVPNAMGWSRQAPGKARELVAAISYSGGRTYYADSVKGRFTISRDNAKNTVYLQMTSLKPEDTAVYYCAAEYWFVYHHYNYWGQGTQVTVSS | high polyreactivity |
| QVQLVESGGGLVQAGGSLRLSCAASAFTFDPYARGWYRHAPGKERELDAANSWSGGSTYYADSVKGRFTISRDHAKNSVYLQMNSLKPEDTAVYYCAAEWYNSAYYEYDYWGQGTQVTVSS | high polyreactivity |
| QVQLLESGGGIVQAGGSLRLSCAASGSTYVIYDMVWYRQAPGKERELVAVITIIGGSTYYADSVKGRFTISRDNAKNTVYLQMISLKPEDTAVYYCNANVIQDYPNYDYWGQGTLVTVSS | low polyreactivity |
| QVQLVESGGRLVQAGGSLRLICAASGLIFYHNAMGWYRQAPGKERELVAAITASGGSTYYADSVKGRFTISRDNAKNTVYLQMNSLKPEDTAVYSCSADGPLDSDLDYWGQGTQVTVSS | low polyreactivity |
| QVQLVESGGGLVQAGGSLRLSCAASGSIFGLYAMGWYRPAPGKEREFVATISKSGVSTYYADSVKGRFTISRDNAKNTVYLQMNSLKPEDTALYYCNADISRDNDFDYWGQGTQVTVSS | low polyreactivity |
| QDQLVESGGGLVQAGGSLRLSCAASGIIIWRYAMGRYRQAPRKERELVAGITSRGGSTYYADSVKGRFTISRDNAKNTVYLQMNSLKPEDTAVYYCNADWYGLLWWGVDYWGQGTQVTVSS | high polyreactivity |
| QVQLVESGGGLVQAGGSLRLSCAASGRTFGWYAMGWYRQAPGKEREFVAVISRSGTNTYYADSVKGRFTISRDNAKNTVYLQMNSLKPEDTAVYYCAAVRSSQSYYYWGQGTQVTVSS | high polyreactivity |
| QVQLVESGGGLVQAGGSLRLSCAASGLTFAFYAMGWYRQAPGKERELVAAISGSGGSTNYADSVKGRFTISRDNAKNTVYLQMNSLKPEDTAVYYCAATYTYSWAYGYWGQGTQVTVSS | high polyreactivity |
| QVQLVESGGGLVQAGGSLRLSCAASGSTFYTYDMGWYRQAPGKERELVASITSGGSTNYADSVKGRFTISRDNAKNTVYFQMYCMKPVDTAVYYCAVGTYTIYSGTLYDYKYYWGQGTVVTVSS | low polyreactivity |
| QVQLVESGGGLVQAGGSLRLSCAASGSIFGVYTMGWYRQAPGKERELVAAITSAGSTYADSVKGRFTISRDNAKNTVYLQMNSLKPEDTEVFYCNAQSVLLSLRVELREPHEYWGQGTQVTVSS | low polyreactivity |

| Sequence | polyreactivity (PSR sort gate) |
| --- | --- |
| QVQLVESGGGLVQAGGSLRLSCAASGSIFVGYAMGWYRQAPGKERDLVAAIDSTVSTYYADSVKGRFTISRDNAKNTVYLQMNSLKPEDTAVYYCAAYPRPDIGYTDGYVWYEFDYWGQGTQVTVSS | low polyreactivity |
| QVQLVESGVGLVQAGGSLRLSCAASGFIFYRNAMGWYRPAPGKERELVAGISRVGSTYYADSVKGRFTISRDNAKNTVYLQMKSLKPEDTAVYYCATSTYAYRRNSYYYTRPRFGYWGQGTQVSVSS | high polyreactivity |
| QVQLVESGGGLVQAGGRLRLSCAASGRTMGWYRQAPGKERELVAAISSGGGSTYYADSVKGRFTISRDNAKNTVYLQMNSLKPEDTAVYYCARTTIAQLHSIVAPHDYWGQGTQVTVSS | low polyreactivity |
| QVQLVESGGGLVQAGGSLRLSCAASGFTFSLYGMGWYRQAPGKERELVAAIRSGGSTNYADSVKGRFTISRDNAKNTVYLQMNSLKPEDTAVYYCATDIHSVHNNRDKHDYDYWGQGTQVTVSS | low polyreactivity |
| QVQLVESGGGLVQAGGSLRLSCAASGSTFPYYAMGRYRPAPGKEMELVAAISQNGGSSYYADSVKGRFTISRDNAKNTVYLQINSLKPEDTAVYYCNADGVGGEYRLSGYDYWGQGTQVTVSS | low polyreactivity |
| QVQLVESGGGLVQAGGSLRLSCAASGRIFKVNAMGWYRQAPGKERELVAVINSRGGSTYYADSVKGRFTISRDNAKNTVYLQMNSLKPEDTAVYYCAAPLTYFKRVYYWGQGTQVTVSS | high polyreactivity |
| QGQLVESGGGLVQAGGSLRLTCAASGSIFYVYDIGWYRPAPGKERELVANIRDGGITYADSVKGRFTISRDNAKYTVYLQMNSLKPEDTAVYYCARDDTSPGYGDQSSNAAYYYWGQGTQVTVSS | low polyreactivity |
| QVQLVESGGGLVQAGGTLRLSCAASGRTFNTYAMGWYRLAPGKERELVAAITVPGGSTYYADSVKGRFTLSRDNAKNTVYLQMNSLKPADTAVYYCAAERPPDGYLVVGYVSTQYYYWGQGTQVTVSS | low polyreactivity |
| QVQLVESGGGLVQAGGSLRLSCGASGSTSKYYAMGWYRQAPGKERELVAAITWSDVSTYFADSVKGRFTISRDNAKHNVYLQMNSLKPEDTAVYYCNAGYDYWGQGTQVTVSS | low polyreactivity |
| QVQLVESGGGLVQAGGSLRLSCAASGLIFLTYAMGWYRQAPGKERELLATISGSTGGTYYADSVKGRFTISRDNAKNSVYLKMNSLKPEDTAVYYCNRRYGRSFRWGYCYWGEGTQVTVSS | low polyreactivity |
| QVQLVESGAGLVQAGGSLRLSCAASGSTFYPYAMGWYRQAPGKERELVAAISWSGGSTYYADSVKGRFTISRDNAKNTVYLQMNSLKPEDTAVYYCAAEYYYIAYTMDYWGQGTQVTVSS | high polyreactivity |
| QVQLVESGGGLVQAGGILRLSCAASGSIFKYYAMGWYRQAPGKERELVADISFGGDSTYYADSVKGRFTISRDNAKNTVYLQMNSLIPEDTAVYYCAAARYFWFVEYDYWGQGTQVTVSS | low polyreactivity |
| QVQLVESGGGLVQAGGSLRLTCAASGFIFSKYAMGSYRQAPGKERELVAAISTSGASTYYADSVKGRFTISRDNAKNTVYLQMNSLKPEDTAVYYCNVPRYSPIRNYDYWGQGTQVTVSS | high polyreactivity |
| QVQLVESGGGLVQAGGSLRLSCAASGRTFGKYTMGWYRQAPGKQRELFAAINRRGGSTYYADSVKGRFTISRDNANNTVYLQMNSLKPEDTAVYYCSTDGYSIDRYYWGQGTQVTESS | high polyreactivity |
| QVQLVESGGGLVQAGGSLRLSCAASGSTSQLYAMGRYRQAPGKERELVAAITVSGDSTYYADSVKGRFTISRDNAKNTVYLQMNSLKPEDTAVYYCAADVMVQTVPGGYDDWGQGTQVTVSS | low polyreactivity |
| QVQLVESGGGLVQAGGSLRLSCAASGGNFSPNAMGWYRQAPGKERELVAAISSNGGSTNYADSVKGRFTISRDNAKNTVYLKMNSLKPEDTAVYYCAGLQKRRSYWRPFYWGQGTQVTVSS | low polyreactivity |
| QVQLVESGGGLVQAGGSLRLSCAASGITFRRKAMGWYRQAPGKERELVAAISASGTRTYYADSVKGRLTISRDNAKNTVYLQMNSLKPEDTAVYYCATRVTSRSSGFDYWGQGTQVTVSW | high polyreactivity |
| QVQLVESGGGLVQAGGSLRLSCAASGSTFVGYAMGWYRQAPGKERELVADITSGGGITYYADSVKGRFTISRDNAKNTVYLQMNSLKPEDTAVYYCAVQYYNVLYYQYDYWGQGTQVTVSS | low polyreactivity |
| QVQLVESGGGLVQAGGSLRLSCAASGITFLRYAMGWYRQAPGKERELVATIRTGGTTNYADSVKGRFTISRDNAKNTVYLLMISLKPEDTAVYYCAVDWSRQAHKFNYWGQGTQVTVSS | high polyreactivity |
| QVQLVESGGGLVQAGGSLRLSCAASGNIFYWYAMGWYRQAPGKEREFVAAITRSGGSTSYADSVKGRFTISRDNAKNTVYLQMNSLKPEDTAVYYCNATHWVHFQEFYSWGPGTQVTVSS | low polyreactivity |
| QVQLVESGGGLVQAGGSLSLSSAASGFTSTLNDMGWYRQAPGKERELVAAISNGGSTYYADSVKGRFTISRDNAKNTVYLQMNSLKPEDTAVYYCAVTATAPQEGDYWGQGTQVTVSS | low polyreactivity |
